The experiment concerns the target pyruvate kinase type M2 (PKM2) (human (endogenous in A549)) (UniProt P14618). Briefly: cross-linking; A549 cells in PBS (2 mg/ml protein), EDC 10 mM / sulfo-NHS 5 mM, room temperature, quenched with 20 mM DTT, then western blot for PKM2; cells treated with pTyr peptide, FBP or serine. Background: Immunoblotting shows a protein as a band on a membrane.

Chain of pyruvate kinase type M2 (PKM2), P14618 1-531 (enzyme; other documents disagree on this pair) (P14618 whole entry): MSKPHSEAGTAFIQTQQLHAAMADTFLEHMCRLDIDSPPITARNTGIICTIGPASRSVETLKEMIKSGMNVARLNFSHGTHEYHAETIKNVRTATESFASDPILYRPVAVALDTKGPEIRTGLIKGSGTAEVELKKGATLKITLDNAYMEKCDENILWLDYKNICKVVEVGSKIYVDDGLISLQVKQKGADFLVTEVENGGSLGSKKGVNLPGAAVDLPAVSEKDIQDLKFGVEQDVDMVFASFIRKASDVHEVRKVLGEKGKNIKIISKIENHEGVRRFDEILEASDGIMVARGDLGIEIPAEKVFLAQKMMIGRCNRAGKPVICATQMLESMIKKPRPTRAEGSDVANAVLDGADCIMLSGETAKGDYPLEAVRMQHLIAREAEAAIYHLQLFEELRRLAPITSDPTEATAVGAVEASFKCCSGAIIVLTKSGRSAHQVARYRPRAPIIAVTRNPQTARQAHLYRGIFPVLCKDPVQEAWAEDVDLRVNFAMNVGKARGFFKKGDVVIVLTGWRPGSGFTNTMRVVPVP

The stoichiometry N is a count of units in the complex or per binding partner. “pyruvate kinase type M2 (PKM2), P14618 1-531 (enzyme; other documents disagree on this pair)”: the stoichiometry N was 2.

These data come from publication PMC5228053.
